Data taken from patent US20220259296A1 (Boehringer Ingelheim, published 2022).

B1: M0124 (antibody, V domains shown)
VH: QSVKESGGRLVTPGTPLTLTCTVSGIDLSRYWMNWVRQAPGKGLEWIGYITTNDKTYYANWAKGRYTISKTSSTTVDLKMTSLTTEDTATYFCARRSSGAYDIWGPGTLVTISS
VL: QPVLTQSPSASATLGASAKLTCTLSSAHKTYYIEWYQQQQGEAPRYLMQLKSDGTYTKGTGVPDRFSGSSSGADRYLIISSVQAEDEADYICGVTGGNVYVFGGGTQLTVTG
notes: Wild-type rabbit VH/VL from a rabbit scFv phage library; ELISA detection used an anti-human Kappa HRP or an anti-His Tag HRP antibody; also called anti-C3 antibody M0124
B2: M0123 (antibody, V domains shown)
VH: QSVKESEGRLVTPGTPLTLTCTASGFTIGSYHMSWVRQAPGKGLEWIGIIYTDGNTDYANWAKGRFTISKTSTTMDLKMTSLTAADTATYFCARRGYADYGYTFNLWGQGTLVTISS
VL: ELVLTQPASVQVNLGQTVSLTCTADTLSRNYASWYQQKPGQAPVLLIYRDTSRPSGVPDRFSGSSSGNTATLTISGAQAGDEADYYCATGDGSGSSYQFVFGGGTQLTVTG
notes: Wild-type rabbit VH/VL from a rabbit scFv phage library; A separate 'scFv-derivative of M0123 (26 kDa)' was used only in the Bruch's membrane diffusion test; also called anti-C3 antibody M0123
B3: M0122 (antibody, V domains shown)
VH: QSVKESGGRLVTPGTPLTLTCTVSGFSLYNYAMNWVRQAPGKGLEWIGIINTDGNTNYASWAKGRFTISTTSSTTVDLKITSPTTEDTATYFCPRAVGYHHHALDPWGPGTLVTVSS
VL: ELVLTQSPSVSAALGASAKLTCTLSSAHKTYTIDWYQQQQGEAPRYLMQLKSDGSYTKGTGVPDRFSGSSSGADRYLIIPSVQADDEADYYCGTDYGGGYVFGGGTQLTVTG
notes: Wild-type rabbit VH/VL from a rabbit scFv phage library; ELISA detection used an anti-human Kappa HRP or an anti-His Tag HRP antibody; also called anti-C3 antibody M0122
B4: M0251 (VHH)
VHH: EVQLVESGGGLVQAGGSLRLSCVASGHTFGNWAMGWFRQAPGKEREFVGAIRWSVGTTNYRDSVKGRFAISRDNARNTVYLQMNRLKPEDTAVYYCAAGTPFVLARINGYDYWGQGTQVTVSS
notes: Wild-type llama VHH domain; also called anti-C3 antibody M0251
B5: M0228 (VHH)
VHH: EVQLVESGGGLVQAGGSLRLSCAASGRTINDYTMGWFRQAPGKDREFVSAINWRGSSTYYADSVKGRFTISRDNAKKTIYLQMNLLKPEDTAVYYCARQVSPYVELTATAAYWGQGTQVTVSS
notes: Wild-type llama VHH domain; also called anti-C3 antibody M0228

Experiments:
human complement C3 [1] = target: T1, human complement C3 (human, UniProt P01024 23-1663); experiment: direct ELISA, plate coated with purified native human C3
T1 construct: mature; Native plasma C3 is processed from one precursor into a beta and an alpha chain; also called native human C3; complement component 3
T1 sequence (P01024 23-1663): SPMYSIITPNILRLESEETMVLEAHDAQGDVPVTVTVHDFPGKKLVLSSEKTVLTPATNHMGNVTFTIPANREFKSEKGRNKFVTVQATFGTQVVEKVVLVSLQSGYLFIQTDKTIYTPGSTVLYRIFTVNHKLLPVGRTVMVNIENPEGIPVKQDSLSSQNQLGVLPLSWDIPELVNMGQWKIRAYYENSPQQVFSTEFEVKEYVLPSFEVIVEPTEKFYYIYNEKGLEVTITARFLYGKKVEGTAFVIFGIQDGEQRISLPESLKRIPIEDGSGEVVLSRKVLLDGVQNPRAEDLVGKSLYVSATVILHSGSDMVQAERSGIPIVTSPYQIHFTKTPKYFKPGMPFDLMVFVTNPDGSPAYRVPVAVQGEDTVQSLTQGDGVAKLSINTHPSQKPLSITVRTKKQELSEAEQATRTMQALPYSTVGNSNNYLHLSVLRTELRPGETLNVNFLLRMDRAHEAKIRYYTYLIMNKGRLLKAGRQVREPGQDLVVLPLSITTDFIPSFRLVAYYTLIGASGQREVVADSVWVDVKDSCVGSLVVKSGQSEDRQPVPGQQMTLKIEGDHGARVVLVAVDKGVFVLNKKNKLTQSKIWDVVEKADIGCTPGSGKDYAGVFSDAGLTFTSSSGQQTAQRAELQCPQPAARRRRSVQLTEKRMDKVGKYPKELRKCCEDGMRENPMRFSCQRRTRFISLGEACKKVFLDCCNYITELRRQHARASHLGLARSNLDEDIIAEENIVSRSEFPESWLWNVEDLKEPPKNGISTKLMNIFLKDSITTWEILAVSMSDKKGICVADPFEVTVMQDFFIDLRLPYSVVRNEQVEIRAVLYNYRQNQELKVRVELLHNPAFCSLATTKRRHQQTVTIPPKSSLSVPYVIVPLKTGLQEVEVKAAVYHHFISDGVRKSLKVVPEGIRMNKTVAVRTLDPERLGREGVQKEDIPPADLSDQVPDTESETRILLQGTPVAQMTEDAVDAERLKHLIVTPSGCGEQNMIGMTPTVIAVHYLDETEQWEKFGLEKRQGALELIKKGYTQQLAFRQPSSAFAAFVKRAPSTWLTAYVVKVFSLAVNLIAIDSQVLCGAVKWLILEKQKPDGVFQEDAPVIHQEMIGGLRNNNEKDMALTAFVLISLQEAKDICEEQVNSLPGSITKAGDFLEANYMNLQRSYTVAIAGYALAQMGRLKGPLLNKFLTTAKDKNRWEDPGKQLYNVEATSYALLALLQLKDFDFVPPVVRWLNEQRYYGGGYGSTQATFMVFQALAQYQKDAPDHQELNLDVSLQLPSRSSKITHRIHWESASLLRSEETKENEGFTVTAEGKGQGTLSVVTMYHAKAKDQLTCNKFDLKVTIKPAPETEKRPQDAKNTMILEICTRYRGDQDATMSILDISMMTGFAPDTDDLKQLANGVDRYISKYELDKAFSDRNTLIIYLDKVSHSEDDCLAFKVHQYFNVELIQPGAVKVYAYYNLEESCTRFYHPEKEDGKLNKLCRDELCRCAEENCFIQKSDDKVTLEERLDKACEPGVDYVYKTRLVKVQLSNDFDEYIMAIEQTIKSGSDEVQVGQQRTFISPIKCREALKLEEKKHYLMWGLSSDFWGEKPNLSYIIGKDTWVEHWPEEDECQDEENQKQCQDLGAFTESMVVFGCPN
Experimental: (§1) M0122, M0124 and M0228 were evaluated for their ability to bind both human C3 and C3b in a direct binding ELISA assay (FIG. 8A and FIG. 8B). Briefly, 96 well ELISA plates were coated with purified native human C3 or C3b (Complement Technology, A113 and A114). Serial dilutions of antibody molecules were added to the plate and detected by a rabbit anti-human Kappa HRP antibody (Abcam, ab202549) or a rabbit anti-His Tag HRP antibody (Abcam, ab1187). M0122, M0124 and M0228 show high affinity binding to both human C3 and C3b.

cynomolgus monkey C3 = target: T2, cynomolgus monkey C3 (cynomolgus monkey (Macaca fascicularis)); experiment: ELISA, cyno C3 captured from cynomolgus serum by coated polyclonal goat antiserum
T2 construct: mature; Native protein from serum; also called cyno C3; cynomolgus C3
Experimental: Antibodies identified as capable of inhibiting all three complement pathways were assessed for their ability to bind cynomolgus monkey C3 in ELISA. Briefly, 96 well ELISA plates were coated with polyclonal goat antiserum deemed to be cross-reactive to cyno C3 and followed by a secondary association with a custom preparation of cynomolgus monkey serum (BioIVT, NB-151558). Serial dilutions of the antibody molecules were added to the ELISA plate and antibodies binding to cyno C3 were detected with a rabbit anti-human Kappa HRP antibody (Abcam, ab202549) or a mouse anti-His Tag HRP antibody (R&D Systems, MAB050H). Leads M0122, M0124 and M0251 show binding in a dose response manner to cynomolgus monkey C3.

human complement C3 [2] = target: T1, human complement C3; experiment: biolayer interferometry, human C3
human complement C3 [3] = target: T1, human complement C3; experiment: cell-based or functional assay
human complement C3b = target: T3, human complement C3b (human, UniProt P01024 23-667; P01024 749-1663); experiment: direct ELISA, plate coated with purified human C3b
T3 construct: domain: C3b; Cleavage product of C3 (C3 without C3a)
T3 sequence (P01024 23-667 limits assumed, chain 1 of 2): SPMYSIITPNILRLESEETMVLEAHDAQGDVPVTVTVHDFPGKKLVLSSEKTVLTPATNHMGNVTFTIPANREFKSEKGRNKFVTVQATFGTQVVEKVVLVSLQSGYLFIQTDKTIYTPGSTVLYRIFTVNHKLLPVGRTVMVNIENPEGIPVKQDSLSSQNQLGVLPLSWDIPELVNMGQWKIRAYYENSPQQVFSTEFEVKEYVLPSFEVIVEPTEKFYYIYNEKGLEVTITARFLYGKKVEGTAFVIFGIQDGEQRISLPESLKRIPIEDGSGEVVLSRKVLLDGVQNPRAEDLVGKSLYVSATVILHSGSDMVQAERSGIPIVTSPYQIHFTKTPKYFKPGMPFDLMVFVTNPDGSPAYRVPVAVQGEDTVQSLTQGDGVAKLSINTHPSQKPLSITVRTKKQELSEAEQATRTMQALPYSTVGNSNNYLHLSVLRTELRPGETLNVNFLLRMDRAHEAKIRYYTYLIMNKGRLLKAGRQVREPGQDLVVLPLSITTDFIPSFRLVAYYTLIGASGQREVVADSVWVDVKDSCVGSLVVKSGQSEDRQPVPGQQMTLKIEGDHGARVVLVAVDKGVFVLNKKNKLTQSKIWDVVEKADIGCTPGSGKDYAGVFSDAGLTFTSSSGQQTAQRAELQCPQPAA
T3 sequence (P01024 749-1663 limits assumed, chain 2 of 2): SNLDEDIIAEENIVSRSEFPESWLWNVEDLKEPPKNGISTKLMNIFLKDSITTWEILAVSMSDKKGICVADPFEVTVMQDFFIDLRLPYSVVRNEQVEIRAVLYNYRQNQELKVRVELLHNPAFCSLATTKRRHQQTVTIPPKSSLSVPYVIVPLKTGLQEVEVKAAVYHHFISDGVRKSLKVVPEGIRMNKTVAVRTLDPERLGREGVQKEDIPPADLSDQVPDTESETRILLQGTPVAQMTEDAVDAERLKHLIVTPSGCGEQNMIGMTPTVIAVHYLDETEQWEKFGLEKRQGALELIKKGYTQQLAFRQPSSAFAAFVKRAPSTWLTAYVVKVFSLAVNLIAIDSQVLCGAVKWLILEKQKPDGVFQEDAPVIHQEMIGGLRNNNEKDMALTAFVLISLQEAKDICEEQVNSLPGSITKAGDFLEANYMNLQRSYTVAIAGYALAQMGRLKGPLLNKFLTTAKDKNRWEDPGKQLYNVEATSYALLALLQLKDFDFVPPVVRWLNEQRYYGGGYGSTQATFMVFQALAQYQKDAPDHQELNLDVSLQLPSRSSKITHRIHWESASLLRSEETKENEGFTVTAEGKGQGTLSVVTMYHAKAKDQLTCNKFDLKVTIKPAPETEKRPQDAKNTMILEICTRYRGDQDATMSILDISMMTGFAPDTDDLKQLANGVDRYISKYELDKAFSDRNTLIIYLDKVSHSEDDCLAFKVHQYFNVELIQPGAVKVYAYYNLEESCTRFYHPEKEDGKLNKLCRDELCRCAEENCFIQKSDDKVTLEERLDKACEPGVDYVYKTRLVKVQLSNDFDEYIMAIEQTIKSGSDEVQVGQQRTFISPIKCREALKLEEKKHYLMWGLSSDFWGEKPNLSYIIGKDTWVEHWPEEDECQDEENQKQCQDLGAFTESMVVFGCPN
Experimental: as §1

human complement C3 [4] = target: T1, human complement C3; experiment: competition ELISA on human C3; competitor: biotinylated M0123 (panel title 'Competition with M0123')
Experimental: (§2) M0251, M0228, M0122, M0123 and M0124 were tested in a pairwise combinatorial manner to identify those that target the same region (epitope) on C3. Briefly, one antibody was labelled via biotinylation and incubated together with other antibody clones in a C3 binding ELISA. Those anti-C3 antibodies that competed for the same binding region were considered to share similar epitopes and therefore to have similar functions. This information enables to reduce the number of potential antibody candidates while maintaining epitope diversity. Out of the five antibodies inhibiting all three complement pathways, M0251, M0228 and M0123 were considered to share the same epitope on C3 (FIG. 7D). Inhibiting leads were assumed to bind three different epitopes on C3 (FIG. 7A-7D).

human complement C3 [5] = target: T1, human complement C3; experiment: competition ELISA on human C3; competitor: biotinylated M0122 (panel title 'Competition with M0122')
Experimental: as §2

human complement C3 [6] = target: T1, human complement C3; experiment: competition ELISA on human C3; competitor: biotinylated M0251 (panel title 'Competition with M0251')
Experimental: as §2

Row | Binder | EC50 (read off the curve) (human complement C3 [1]) [µg/mL] | EC50 (read off the curve) (cynomolgus monkey C3) [nM] | Kd (human complement C3 [2]) [nM] | koff (human complement C3 [2]) [s⁻¹] | kon (human complement C3 [2]) [M⁻¹ s⁻¹] | inhibition of classical, lectin and alternative complement pathways in human serum (Wieslab Complement system Screen, C5b-C9 neoantigen) (human complement C3 [3]) [%] | EC50 (read off the curve) (human complement C3b) [µg/mL] | IC50 (read off the curve) (human complement C3 [4]) [nM] | IC50 (read off the curve) (human complement C3 [5]) [nM] | IC50 (read off the curve) (human complement C3 [6]) [nM]
1 | B1 | ~0.07 | ~3 | 0.0124 | 5.18e-05 | 4.16e+06 | ≥ 90 | ~0.04 | – | – | –
2 | B2 | – | – | – | – | – | ≥ 90 | – | ~9 | – | –
3 | B3 | ~0.03 | ~2 | 0.0528 | 4.7e-06 | 89000 | ≥ 90 | ~0.04 | – | ~20 | –
4 | B4 | – | ~5 | – | – | – | ≥ 90 | – | ~20 | – | ~4
5 | B5 | ~0.03 | – | 0.199 | 0.000111 | 557000 | ≥ 90 | ~0.03 | ~2 | – | –
